Source: patent US20250353904A1 (INSTITUTE OF SCIENCE TOKYO, published 2025)

T1: human disulfide HMGB1 (human, UniProt P09429 1-215, disulfide form (ds-HMGB1) as printed; the cysteines involved are not stated)
T1 construct: also called human dsHMGB1; ds-HMGB1
T1 sequence (looked up): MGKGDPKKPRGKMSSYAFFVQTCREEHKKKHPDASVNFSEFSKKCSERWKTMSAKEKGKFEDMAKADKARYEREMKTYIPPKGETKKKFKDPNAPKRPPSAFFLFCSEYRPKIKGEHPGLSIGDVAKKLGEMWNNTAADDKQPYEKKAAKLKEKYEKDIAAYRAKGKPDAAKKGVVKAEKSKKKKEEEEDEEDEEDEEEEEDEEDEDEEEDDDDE

T2: human reduced HMGB1 (human, UniProt P09429 1-215, reduced form as printed)
T2 sequence (looked up): T1 sequence (looked up)

B1: mouse monoclonal antibody 2C8C (antibody, from another filing, V domains shown)
VH: QVQLQQSGPELVKPGASVKLSCKASGYTFTDYTIHWVKQSPGQGLEWIGWIYPGSGNTKYNDKFKGKATMTADKSSSTAYMQLSSLTSEDSAVYFCARGFAYWGQGTLVTVSA
VL: DIVLTQSPATLSVTPGDSVSLSCRASQSISNNLHWYQQKSHESPRLLIKYASQSISGIPSRFSGSGSGTDFTLSINSVETEDFGMYFCQQTNSWPLTFGAGTKLELK
B2: human monoclonal antibody #129-L2 (antibody, human IgG1, kappa, V domains shown)
VH: EVQLLESGGGLVQPGGSLRLSCAASGFTFSSYAMSWVRQAPGKGLEWVSDISGSGGSTYYADSVKGRFTISRDNSKNTLYLQMNSLRAEDTAVYYCARGYGMDVWGQGTMVTVSS
VL: DIQMTQSPSSLSASVGDRVTITCRASQSVTNYLAWYQQKPGKAPKLLIYGASILETGVPSRFSGSGSGTDFTLTINSLQPEDFATYYCLQHASTPLTFGQGTKLEIKT

Columns and labels:
[1] = target: human HMGB1 protein (human) (UniProt P09429); test: SPR, Biacore T100, antibody immobilized on chip, human HMGB1 as analyte
human disulfide HMGB1 [2] = target: T1, human disulfide HMGB1; test: SPR, antibody after against before 6-month storage at 4 C
human disulfide HMGB1 [3] = target: T1, human disulfide HMGB1; test: SPR as in Example 1; unit inferred; human dsHMGB1; before storage
human disulfide HMGB1 [4] = target: T1, human disulfide HMGB1; test: SPR, antibody after 6-month storage at 4 C; unit inferred; after storage for 6 months at 4° C
human reduced HMGB1 [5] = target: T2, human reduced HMGB1; test: ELISA, saturation curve: concentration of bound antibody against concentration of added antibody, on human reduced HMGB1
human disulfide HMGB1 [6] = target: T1, human disulfide HMGB1; test: ELISA, saturation curve: concentration of bound antibody against concentration of added antibody, on human dsHMGB1
human reduced HMGB1 [7] = target: T2, human reduced HMGB1; test: SPR as in Example 1; unit inferred; human reduced HMGB1

Binder | Kd [1] | fold increase of KD after storage against before storage (human disulfide HMGB1 [2]) | Kd (human disulfide HMGB1 [3]) | Kd (human disulfide HMGB1 [4]) | Kd (human reduced HMGB1 [5]) | Km (human reduced HMGB1 [5]) | Kd (human disulfide HMGB1 [6]) | Kd (human reduced HMGB1 [7])
B1 | 1.95 nM |  |  |  |  |  |  | 
B2 |  | ~2.5 fold | 0.0144 nM | 0.0351 nM | 6880 nM | 4.34e-09 M (from the axes; none beside the number) | 0.0549 nM | 15100 nM
